# Results published in patent US20240270846A1 (published 2024).
# Residue numbers refer to the chain shown, from its start. In names and notes the source's numbering stands.
# B1: GLS3000 V94A one-arm antibody (antibody, human IgG1, kappa, L234A L235A, N297A, name in Kabat numbering)
# light: DIVMTQSPLSLPVTPGEPASISCRSSQSLVHSNRNTYLHWYQQKPGQAPRLLIYKVSNRFSGVPDRFSGSGSGTDFTLKISRVEAEDVGVYYCGQGTQAPYTFGQGTKLEIKRTVAAPSVFIFPPSDEQLKSGTASVVCLLNNFYPREAKVQWKVDNALQSGNSQESVTEQDSKDSTYSLSSTLTLSKADYEKHKVYACEVTHQGLSSPVTKSFNRGEC
# heavy: QVQLVESGGGVVQPGRSLRLSCAASGFTFSNAWMHWVRQAPGKGLEWVAQIKAKSNNYATYYAESVKGRFTISRDDSKNSLYLQMNSLKTEDTAVYYCRYVHYGAYYGVDAWGQGTTVTVSSASTKGPSVFPLAPSSKSTSGGTAALGCLVKDYFPEPVTVSWNSGALTSGVHTFPAVLQSSGLYSLSSVVTVPSSSLGTQTYICNVNHKPSNTKVDKKVEPKSCDKTHTCPPCPAPEAAGGPSVFLFPPKPKDTLMISRTPEVTCVVVDVSHEDPEVKFNWYVDGVEVHNAKTKPREEQYASTYRVVSVLTVLHQDWLNGKEYKCKVSNKALPAPIEKTISKAKGQPREPQVYTLPPSRCELTKNQVSLSCAVKGFYPSDIAVEWESNGQPENNYKTTPPVLDSDGSFFLVSKLTVDKSRWQQGNVFSCSVMHEALHNHYTQKSLSLSPDYKDDDDK
# chain: EPKSSDKTHTCPPCPAPELLGGPSVFLFPPKPKDTLMISRTPEVTCVVVDVSHEDPEVKFNWYVDGVEVHNAKTKPREEQYNSTYRVVSVLTVLHQDWLNGKEYKCKVSNKALPAPIEKTISKAKGQPREPQVCTLPPSRDELTKNQVSLWCLVKGFYPSDIAVEWESNGQPENNYKTTPPVLDSDGSFFLYSKLTVDKSRWQQGNVFSCSVMHEALHNRYTQKSLSLSP
# B2: GLS3000 F55E one-arm antibody (antibody, human IgG1, kappa, L234A L235A, N297A, name in Kabat numbering)
# light: B1 light with F60E, A99V
# heavy: B1 heavy
# chain: B1 chain
# B3: GLS3000 F55M one-arm antibody (antibody, human IgG1, kappa, L234A L235A, N297A, name in Kabat numbering)
# light: B1 light with F60M, A99V
# heavy: B1 heavy
# chain: B1 chain
# B4: GLS3000 G89D one-arm antibody (antibody, human IgG1, kappa, L234A L235A, N297A, name in Kabat numbering)
# light: B1 light with G94D, A99V
# heavy: B1 heavy
# chain: B1 chain
# B5: GLS3000 G89H one-arm antibody (antibody, human IgG1, kappa, L234A L235A, N297A, name in Kabat numbering)
# light: B1 light with G94H, A99V
# heavy: B1 heavy
# chain: B1 chain
# B6: GLS3000 F55Q one-arm antibody (antibody, human IgG1, kappa, L234A L235A, N297A, name in Kabat numbering)
# light: B1 light with F60Q, A99V
# heavy: B1 heavy
# chain: B1 chain
# B7: GLS3000 F55V one-arm antibody (antibody, human IgG1, kappa, L234A L235A, N297A, name in Kabat numbering)
# light: B1 light with F60V, A99V
# heavy: B1 heavy
# chain: B1 chain
# B8: GLS3000 F55G one-arm antibody (antibody, human IgG1, kappa, L234A L235A, N297A, name in Kabat numbering)
# light: B1 light with F60G, A99V
# heavy: B1 heavy
# chain: B1 chain
# B9: GLS3000 F55Y one-arm antibody (antibody, human IgG1, kappa, L234A L235A, N297A, name in Kabat numbering)
# light: B1 light with F60Y, A99V
# heavy: B1 heavy
# chain: B1 chain
# B10: GLS3000 F55H one-arm antibody (antibody, human IgG1, kappa, L234A L235A, N297A, name in Kabat numbering)
# light: B1 light with F60H, A99V
# heavy: B1 heavy
# chain: B1 chain
# B11: GLS3000 G89E one-arm antibody (antibody, human IgG1, kappa, L234A L235A, N297A, name in Kabat numbering)
# light: B1 light with G94E, A99V
# heavy: B1 heavy
# chain: B1 chain
# B12: GLS3000 F55S one-arm antibody (antibody, human IgG1, kappa, L234A L235A, N297A, name in Kabat numbering)
# light: B1 light with F60S, A99V
# heavy: B1 heavy
# chain: B1 chain
# B13: GLS3000 G89F one-arm antibody (antibody, human IgG1, kappa, L234A L235A, N297A, name in Kabat numbering)
# light: B1 light with G94F, A99V
# heavy: B1 heavy
# chain: B1 chain
# B14: GLS3000 F55L one-arm antibody (antibody, human IgG1, kappa, L234A L235A, N297A, name in Kabat numbering)
# light: B1 light with F60L, A99V
# heavy: B1 heavy
# chain: B1 chain
# B15: GLS3000 F55P one-arm antibody (antibody, human IgG1, kappa, L234A L235A, N297A, name in Kabat numbering)
# light: B1 light with F60P, A99V
# heavy: B1 heavy
# chain: B1 chain
# B16: GLS3000 F55I one-arm antibody (antibody, human IgG1, kappa, L234A L235A, N297A, name in Kabat numbering)
# light: B1 light with F60I, A99V
# heavy: B1 heavy
# chain: B1 chain
# B17: GLS3000 G89I one-arm antibody (antibody, human IgG1, kappa, L234A L235A, N297A, name in Kabat numbering)
# light: B1 light with G94I, A99V
# heavy: B1 heavy
# chain: B1 chain
# B18: GLS3000 F55T one-arm antibody (antibody, human IgG1, kappa, L234A L235A, N297A, name in Kabat numbering)
# light: B1 light with F60T, A99V
# heavy: B1 heavy
# chain: B1 chain
# B19: GLS3000 F55R one-arm antibody (antibody, human IgG1, kappa, L234A L235A, N297A, name in Kabat numbering)
# light: B1 light with F60R, A99V
# heavy: B1 heavy
# chain: B1 chain
# B20: GLS3000 F55N one-arm antibody (antibody, human IgG1, kappa, L234A L235A, N297A, name in Kabat numbering)
# light: B1 light with F60N, A99V
# heavy: B1 heavy
# chain: B1 chain
# B21: GLS3000 G89A one-arm antibody (antibody, human IgG1, kappa, L234A L235A, N297A, name in Kabat numbering)
# light: B1 light with G94A, A99V
# heavy: B1 heavy
# chain: B1 chain
# B22: GLS3000 F55K one-arm antibody (antibody, human IgG1, kappa, L234A L235A, N297A, name in Kabat numbering)
# light: B1 light with F60K, A99V
# heavy: B1 heavy
# chain: B1 chain
# B23: GLS3000 F55W one-arm antibody (antibody, human IgG1, kappa, L234A L235A, N297A, name in Kabat numbering)
# light: B1 light with F60W, A99V
# heavy: B1 heavy
# chain: B1 chain
# Target: T1, CD3 epsilon homodimer protein (UniProt P07766 23-126)
# T1 construct: Construct of the homodimer is not described; also called CD3 (CD3 epsilon)
# T1 sequence (P07766 23-126): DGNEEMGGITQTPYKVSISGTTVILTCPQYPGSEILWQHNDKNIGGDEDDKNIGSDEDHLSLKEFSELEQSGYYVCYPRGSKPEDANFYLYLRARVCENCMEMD
# Assay: SPR Biacore T200, CD3e homodimer on chip, antibody analyte;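 note: CD3 epsilon homodimer amine-coupled on CM4 sensor chip, antibodies injected as analyte at 25 °C in HBS-EP+, ratio ≥0.8 taken as binding retained versus unaltered parent antibody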
row,ratio of amounts bound (altered form/GLS3000),Binder
1,1.05,B1
2,0.72,B2
3,0.8,B3
4,0.33,B4
5,0.7,B5
6,0.91,B6
7,0.71,B7
8,1.31,B8
9,0.92,B9
10,0.94,B10
11,0.26,B11
12,0.69,B12
13,1.09,B13
14,0.76,B14
15,1.16,B15
16,0.82,B16
17,1.07,B17
18,0.41,B18
19,1.31,B19
20,0.98,B20
21,1.13,B21
22,1.33,B22
23,0.69,B23
